# Test: soluble fraction after stress (log2 fold change); higher = more stays soluble; pooled small domains, quantitative proteomics
# Settings: stress: 50 degC
# Method in brief: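 Pooled custom libraries of small protein domains were measured in a high-throughput format, with quantitative proteomics as the read-out. Each library was stressed at 50°C. Aggregation propensity is given as the base-two logarithm of the fold change in how much of each protein stays soluble after the stress. Higher values mean a larger share of the protein remains in solution.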
row,Sequence,soluble fraction (log2)
1,HMAEIIVHEINRHLGESDEPVEFPEERREEAVAELLKNFHNDDAFRKMDDGKYEVALDGEAVREAARSLLA,0.207
2,HMVEPDELTEREREVLQFVARGLSNKEIGAALALSPHTIKAHLRSILDKLHLRSRAEAAAWAVRSGLS,-0.143
3,HMESAQLIINVAGKVSNPGVYQLPQGSRVVDAIEAAGKQLKGVDISDINLARVLVDGEQILVGGV,0.247
4,HMKDDLTWSEGLMPNVVGMGLRDAMFMLENSGLRVNYSGRGKVTRQSPQPGVRIKRGATVAIELRL,-0.395
5,HMTTVKDRVYEILKREIVLGKLKPGEPINIAVLSTKLNISSAPLREALNMLSRDGLVTLNPRKHAAVSE,-0.499
6,HMTRLDLQNAFRVLPPEIQPAAVLFFLQERKQREIAKILGIGLPLVKYRIRKARELLAQFLRKEA,-0.241
7,HMVLLGAAIRELRIQKGITIEELAEMSGLSTGLISKIERDLGNPSISSLRKISRALGVPTAFFFA,-3.07
8,HMFEERKKDWNLTGLLDDVIRRYIHQLTNDELNEINLEKSSGMPDEEIKNGIKLPLAVMQQRRETWGS,-0.16
9,HMDLQAAWLQTVRHLLAHTEDVGDRFAEEARRIHYGEEPHRGIRGQATPEERLALREEGIETMSIPV,-0.631
10,HMADTFVMPDLVYRRYEPVRGYFERGGFHMGAVKFEPYEGISDGTILRQNPLPGHPLRRRDVISLVVAAS,-2.23
11,HMINDPSALGQRAFVDELLWMAGYVPEKIEIYQTLPNNSRVYRVKLDSVNGGFIFIRWDKKKKEHYV,0.114
12,HMESMIGSLRGRLLELFGDGEVLIEVGGVGYRVIVTPTTTVRLGDVGGDVFVHVHHHIREADQTLYGF,-0.234
13,HMLMTGSLQTKHGKYYVVVRIPDGLGNTKAKWINTGIPTDGNNKRKAQQRRIEILTELEENKD,-1.84
14,HMATVHPIRIQGGMTTQQGGKTVWLWVSDEGRLMTEDEIAGESGGTVSSRMVRGVRVLTGTGVIYG,-2.02
15,HMEGAEDMNRALALAFLRDNSRSTVAQLAEHLGSSKRSAERLVAQLKDEGVLERQGSPRAGLWIVHI,-0.0818
16,HMEIDMQEGIKTIILMMKEHNITPSEAMKIYKSANGDIHYISKIYNHFKNKGADNFVALMIKMVKPGEFIE,-0.00191
17,HMEFYYSDLVGMIVYDTGGNELGKVQAVLNHGAGDLLEIHGVNLKTSILIPFTKEAVPTVDIAARRIVTDP,0.0733
18,HMNSEELFLRRIAQELIDQHGKDLHRIIVVLPSNRSKVFLKKFLFEILGSAFLTPQLMLLPQFVKSIV,-0.282
19,HMQEISQEEALATVLKDLSLTEADLKDLQITREEDKYKILFSKGQTAYDVLVSAKDGQLLQSKQETI,-0.165
20,HMNNMVNTLLKLLAEQDVLRGIVRRFTPSSVFVFLQNEEVEVELPLQGRSLAPGQLVELTQEGASVALKRL,-0.647
21,HMGSWEDALKNWVDSALASGQKGILEQAVPKFERIMIETALTHTAGRRRDASLLLGWGRNTLTRKIKELGI,-0.214
22,HMELPMGTQLPPERELAQQMQVSRAVVNGGLAELAQQGFLEVRPRQGTFVADYRRKGNLSTLIAIMEY,0.0153
23,HMGLQDLFLNSLRKSKTPVTMFLVKGVKLQGVVTWFDNFSVLLRRDGMSQLVYKHSISTIMP,-0.0722
24,HMELLTNPLTGREVEVLTLMALGQTNHEIARQLYLATGTVKAHTSSIYRKLDVANRTEAVARARQLGIL,-1.1
25,HMYVPEVPVPDLLGRSEEEAKNLIEDLGLVFKVSKREYSKEYDEGHVMEQSVDEGAKVKENYPVEVVISR,0.196

row,Sequence,soluble fraction (log2)
1,HMIKKAILPVAGLGTRFLPASKSIPKEMVTVVDRPAIEYVVREAVEAGIEQIILVTHSSKASIENYFDR,-0.187
2,HMLSLTSRQQEIFDLIKGHIKKTGMPPTRSEIALHFGFRSANSAEEHLRALARKGFIELIPGTSRGIKLIE,-0.892
3,HMTQGIDQISFSQFLDKVQSGEVTDVRISGSDITGTLKTGGKFETVAGNYEKIWDLLRENKVVFVVDSP,0.0436
4,HMEIRNLMPILSHFLNENDIKLSRESVNLVLDRASGNRENLNNELKKIHDYSFSNKIIDFETIKKLTNLG,-0.194
5,HMRMSPRERKIYQFIENHPGTKSGEMAEKLGIPLPTIKRLLSDMVASKLLQKHGTGAGTNYSIEE,0.201
6,HMIKIDESTLSEDELKIFEILKIEDKNIENIAIESKILPGKLLATLMNMEMKKIVVQYPGKVFGLNRKLK,-0.492
7,HMRDVVVVPDLSGLTQMEALSKLDAESLNIGEINYGVSEMPEGVIFKQDPVYGTELMKGDTVDIFISGR,-0.527
8,HMVYNQYILTQSVRLREEPGISGRVIRLLETGTTVELVDTVVVNKDDYDWVWVKLSDGAVGWIIKSAIDI,-0.529
9,HMPLQKNRPKIKPQKVVFLFSVEWMWSPAHNRIDSYFINIKPSRYYLWNSFFDRHSFSDYWDFIGYTEN,-0.0868
10,HMLPLIEVPAVTGKYLTKAKSALKDAGLDTGDIKRVEHEEHGENYVLKQDPPAGTKVPFGTTVSLTVVAP,0.35
11,HMRKSLGEIVFDRMERAIKSGAYSPDERLPTELDLAAEFEVSRPVIRDALKRLRERGLIYSRQGAGSFVRA,-0.499
12,HMGKKGPELNDNEKIIFNIISKENSMNLDDLKNRTELSNKQWDKAIKGLRSHELVNIEKIDDQLLIHL,0.196
13,HMDGFVFVMPIKETRMFSVNDERPLVGIVKYSNGEFEKEQLIGFRPNSEYEFIIEGQRLYRVPVNSITIK,-0.886
14,HMGNYRVIKWGMQGDDVKLMQQMLINRGYVLSATGKYASRTLKAIMAFQEANGLKADGIVGKRTWNKLL,-2.66
15,HMTATVPDSEAGIRLDVYAAALLGVSRAGAQKYIESGAVRVNGLPAPKNRRLESGDVIEAVLPDPE,0.157
16,HMLDNHPQSKKIRALWLEMAAAGVVRDSSEQALALWVKRETGISALRWLSNEQASSVIEKLKKWQRRAAG,-0.687
17,HMQNDDLTKLDGIGPYIEQRLNDIGIYNYEQLSKLNTEDIQKITELIDFFPGRIERDNWVSQAQLLKI,-0.316
18,HMVKNYYEILEVDKKASPEVIEKAYKTLAKKYHPDLQEAENNGQYEEKMKEINEAYSVLSDEFKRRTYDEQ,0.114
19,HMTINQIDPASGRKVGYWIITGEMKPKEGFSPDNKIEEGIYVNSRKSGKWIKYWPNGNVRSEIIYKNGR,-0.549
20,HMTLSENEKIIVDTIMKYQPLHIDVLNQQVKVDFYTLLGLLTKLEMEGIVLKNPGNIYKINTL,-0.346
21,HMKNEYAMVIQVNGKLRGNMLVSADLEQKDIERMALDNEDIKRFISHENDVKKMIFVPKKLINIVT,-0.351
22,HMQRQGTVATQQTPLNIRSQPSLSAQVIGQAPKGATVAILGESGDWYQIRYQNITGYSSKQYI,0.145
23,HMGTHDAGTRFFDNLDSLLQNRDATRADVLAVYLLAVSLGFRGKHRSVSSAPQIAHYRNQAYVTLFQ,0.546
24,HMYRWSEEIFEKLRSDIMAALDLSREQNDEEIYRFIETEVEEYSQNNLLTLKEREQLEHLLFNSL,-1.3
25,HMTAQGDSSDAVQRAITEILRHEDPSHPFSDQQLVIKLRTMDISVSRRTVTKYRKLLHIPSSTHRK,-2.74

row,Sequence,soluble fraction (log2)
1,HMVDISLSDRELEVLRLLAMGLSNADISRRLYLSEGTIRNYMSGIFSKLNVSDRTQAVVIALREGLVNL,-0.48
2,HMRKEDYLPIGSVINMDDRKFRVDSVDFDKDKVSLQDMALADARMPIFWEEPLTVVRELYEQQDE,0.0652
3,HMKVKEYKLVDWISTFTKNEGYGISQKAAMLLAEFLGDDLSRIANEIEKLKLLVEKGTTINDVHIEENI,-0.797
4,HMDLPGIVTETDRQRADLAARIGAAKVEAVLAGGARSVEADEDFDADTRRELHQFLTRMARRAFLEER,-0.0484
5,HMGVSDDMARGVVRARQFLSDFAAVPLDRMTPAEAVARARQLKSELETDAKHSPWLLDVLSNA,-0.0848
6,HMETVVTEVKTTDVVNIRTSDSETADKLSKAAIGDTFPLLEERGNGWSKVAYNGEEAFIKSDYLEPSKTE,0.42
7,HMNAISIDEAKKIALAKVSGASDQHIRIEADHDDGRLVYEGEIHYGRVEYEFEIDGSTGAIIEWDADRK,-0.341
8,HMSLTEEQVDSGLKEIRLALLEADVALPVVKNFITNIKPKAIGQEIIRSTSPGQMIVKIVYDELVSIL,-0.0891
9,HMAVGVFQKEDGYWGYRFSIIVDGKTIARRKFTDENGSKLRTKSEAVKARAAAMVAARMERVS,-2.96
10,HMNSSTYIVTFKVDGEEDIVETYQWGDRIIVPEVEAKDDYVFIGWDAQIPEFMPERNLEFTAI,-1.14
11,HMTPDGNATVWSANGYGVRLRTGPGKGYAIIGVYSVGTTVKVLERGPAGGWDHIQVGSRVGYMMNEFLHYY,-1.69
12,HMPSLNDRPDDVLYLFSYFLQSFSHRQVSLPKILKKALIQHDWWGNIRELHSVALRYYIFGDTLNGAYDSL,-1.3
13,HMKHVDLDNNERYIYGIIGSTKIHVDEVVEKSGMETKHVMAILTNLELKEAIKGIPGGFYLR,-0.506
14,HMETPQIVARGDLITMVFRSGSLVLTAKGKALENGAMGDTIRVVNSDSNKTLAARVSASREVTVSE,-0.417
15,HMFNGDPTTRESILASARAEIDQYGIIGLRLSAVAEKAQVSVPLIYKYFEDRDGLLAVVLGDW,-1.27
16,HMLEKVLDNHIHKLRLQHKISQQELADAIGVSRKTISTVETGRFTPSVVIALKIAAHFSVSVEQVFTL,-0.964
17,HMAEVALFVNGSDVNLRSGPGQESTRVIGSLNLGDEVRIKSQNGQWREVYVPKTRQVGWVAHWLLSEAPP,0.192
18,HMLGSGSKEQQLVILNNILERQVQAFNLQGGQEYPMVTLKNFYNTLSKMIENAGLKNVENYFVNPDVGKQM,-0.302
19,HMRENAARNRNVNLDIGETLRVDAWSPERRARVQYRGAAWDVELAPNAPATVGEFRIVEVRGNVLVVTP,0.0231
20,HMALDLPVKRVKGKEYYYYKVKKGESLYGISKHLGLPLDSIVKSNPSVADGVRKGDMLLFPLEEYT,-0.307
21,HMGGAVQIAEQIAARIKDGALRPGELLPPVRQLAAELEVNPNTVASAYARLRDAGLVATRGRAGTVVLEPP,-0.172
22,HMVDQKLIQASAEHSGIRIDRFLSEQLPEHSRSYIQKLIKDGQVSIGGKAVKSNYKIAGTEEISLLIPDQ,0.0523
23,HMDAEEISILLEKAVLQLPEKQKMIFQLKYFEDLSYKDIQIITGGSIGGLKANYHHAVTKIEKLLS,-0.0727
24,HMPQEMIEILATPNGWLRVRQGPGTNYPEITKVNSGEEFPLLEEKDSWFKIRIEEGQEGWISSQYAQKEE,-0.0402
25,HMTVKEVGYDTFLTMLDKKEIKQVQVEDNQIIFSDNADPVNYYKTGVFNDPDLVNRLQDAGVEFG,0.312
